In the assay the target is Amy117, neopullulanase (NPase) from B. pseudofirmus 703 (B. pseudofirmus 703). As to the kind of experiment: AUC; sedimentation velocity, 50 mM Na2HPO4-NaH2PO4 buffer pH 7.0, 20 °C, 38,000 rpm, absorbance at 280 nm, c(s) model in SEDFIT; oligomeric state.

Several values for one entry are separate records, joined by “and”; a condition that tells them apart may be missing. Identical values can stand only once.

One may read the stoichiometry N as the number of molecules, sites or subunits per partner or assembly. For the substance “Amy117, neopullulanase (NPase) from B. pseudofirmus 703 (enzyme)”, the percent as a tetramer was determined as 3.3%; the percent in the dimerized form worked out at 68.7%; the percent in the monomeric form amounted to 24.3%; the stoichiometry N was 2 and 4.

(Values after paper PMC9267027.)
